Legend:
Assay type in all cases: in vivo
[1] = test system: Arabidopsis thaliana T1 plants; test: Topramezone tolerance of transgenic Arabidopsis thaliana T1 plants (spray, bleached leaf area grade, damage score); details: 7 DAT, Table 4; for Classification and statistics of the grade of pesticide damage: Grade 0 / Classification and statistics of the grade of pesticide damage: Grade 1 / Classification and statistics of the grade of pesticide damage: Grade 2 / Classification and statistics of the grade of pesticide damage: Grade 3: number of plants; for Scores: pesticide damage score 0-100
In short: (§1)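 T1 transformants selected by glufosinate; 18-day-old plants, with empty-vector and wild-type controls, sprayed with topramezone (25–200 g ai/ha), isoxaflutole (35–280 g ai/ha) or mesotrione (52.5–420 g ai/ha), water as 0×. Bleached leaf area fraction scored at 7 DAT as grades 0–3.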

[2] = test system: Arabidopsis thaliana T1 plants; test: Isoxaflutole tolerance of transgenic Arabidopsis thaliana T1 plants (spray, bleached leaf area grade, damage score); design: Scores (pesticide damage): scale not given here; details: spray, Arabidopsis thaliana T1 plants; for Classification and statistics of the grade of pesticide damage: Grade 0 (number of plants) / Classification and statistics of the grade of pesticide damage: Grade 1 (number of plants) / Classification and statistics of the grade of pesticide damage: Grade 2 (number of plants) / Classification and statistics of the grade of pesticide damage: Grade 3 (number of plants): 16 plants
In short: as §1

[3] = test system: Arabidopsis thaliana T1 plants; test: Mesotrione tolerance of transgenic Arabidopsis thaliana T1 plants (spray, bleached leaf area grade, damage score); design: Scores: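 damage score 0-100 computed as Σ(N×S)/(T×M)×100 over grades 0-3 with higher meaning more damage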; details: Arabidopsis thaliana T1 plants; for Grade 0 (classification and statistics of the grade of pesticide damage; number of plants) / Grade 1 (classification and statistics of the grade of pesticide damage; number of plants) / Grade 2 (classification and statistics of the grade of pesticide damage; number of plants) / Grade 3 (classification and statistics of the grade of pesticide damage; number of plants): 16 plants
In short: as §1

soybean T1 plants [4] = test: Topramezone tolerance of transgenic soybean T1 plants; details: different concentrations
Procedure: T1 transformants were initially selected from the untransformed seeds using a glufosinate selection scheme. […] The degree of damage caused by the herbicide was measured for each plant according to the proportion of bleached leaf area (the proportion of bleached leaf area=bleached leaf area/total leaf area×100%) 7 days after spraying (7 DAT): the case where there is basically no bleached phenotype is defined as grade 0, the case where the proportion of bleached leaf area is less than 50% is defined as grade 1, the case where the proportion of bleached leaf area is more than 50% is defined as grade 2, and the case where the proportion of bleached leaf area is 100% grade is defined as grade 3.
The soybean T1 plants into which the SbHPPD-02 nucleotide sequence was introduced, soybean T1 plants into which the SbHPPDm-F372A-02 nucleotide sequence was introduced, soybean T1 plants into which the SbHPPDm-F383W-02 nucleotide sequence was introduced, soybean T1 plants into which the SbHPPDm-F372A-F383W-02 nucleotide sequence was introduced, soybean T1 plants into which the control vector DBN11726N nucleotide sequence was introduced, and wild-type soybean plants (V3-V4 at seedling stage) were sprayed with topramezone at three different concentrations (i.e., 25 g ai/ha (one-fold field concentration, 1×). […] According to the method in point 6 of Example 1, after 7 days of spraying (7 DAT), the damage degree of each plant by the herbicide was statistically analyzed, and the scoring and resistance evaluation were carried out accordingly. […]

soybean T1 plants [5] = test: Isoxaflutole tolerance of transgenic soybean T1 plants; details: different concentrations
soybean T1 plants [6] = test: Mesotrione tolerance of transgenic soybean T1 plants; details: different concentrations
[7] = isoxaflutole 35 g ai/ha (0.5x field concentration)
[8] = isoxaflutole 70 g ai/ha (1x field concentration)

B1: SbHPPDm-F372A-F383W-02: nucleotide sequence encoding Sorghum bicolor HPPD with F372A+F383W; vector DBN11761 (nucleic acid)
DNA: ATGCCGCCCACTCCAACAACTGCTGCTGCGACGGGAGCAGCTGTCGCCGCTGCTTCTGCTGAGCAGGCTGCCTTCAGGCTCGTCGGGCACAGAAATTTTGTTCGTGTAAATCCAAGGAGTGATAGGTTCCACACCTTGGCTTTTCACCACGTGGAGTTGTGGTGTGCTGATGCAGCCTCGGCAGCGGGGCGCTTCTCGTTTGGTCTCGGTGCTCCGCTCGCCGCAAGATCTGATCTTAGCACTGGAAACACAGCGCATGCCTCCCTGCTCCTGCGCTCTGGCGCGCTGGCGTTCCTCTTCACGGCGCCATATGCTCACGGCGCCGACGCCGCCACCGCGTCATTGCCGTCTTTTAGTGCAGCCGAAGCAAGAAGATTTGCAGCAGACCACGGCCTCGCCGTAAGGGCCGTGGCCTTACGTGTCGCCGATGCCGAAGATGCTTTCCGCGCCTCTGTAGCAGCTGGAGCAAGGCCAGCATTTGAACCTGTTGAATTGGGGTTAGGATTCCGTCTTGCAGAAGTTGAGCTTTATGGCGACGTTGTTTTGAGATACGTTTCATATCCTGATGACGCTGACGCTAGCTTCTTGCCTGGTTTTGTGGGGGTGACATCACCTGGGGCAGCAGATTATGGTCTCAGGCGGTTTGATCATATTGTTGGAAACGTTCCTGAACTCGCGCCGGCGGCAGCCTACTTCGCCGGTTTCACTGGGTTTCATGAATTTGCTGAATTCACAGCCGAGGATGTCGGCACCACCGAGAGTGGACTGAACTCCATGGTGCTGGCCAACAATGCAGAGAATGTCCTTCTTCCCTTGAATGAACCAGTTCATGGAACAAAAAGGCGTTCCCAAATACAAACATACCTCGACCATCATGGTGGACCAGGCGTTCAGCATATGGCTCTCGCTAGTGACGATGTTCTACGAACCCTGCGAGAGATGCAGGCGCGGTCTGCAATGGGAGGATTTGAGTTCATGGCACCTCCTGCCCCTGAATATTATGATGGTGTTCGGAGAAGGGCAGGTGATGTGCTAACTGAAGCTCAAATCAAGGAGTGCCAGGAGCTTGGCGTGCTGGTCGATCGGGATGATCAAGGTGTGCTTCTGCAGATTGCCACTAAACCAGTGGGTGACCGCCCCACGCTGTGGCTAGAGATCATCCAGAGAATAGGGTGCATGGAGAAGGACGAAAAAGGACAAGAGTACCAGAAGGGAGGTTGTGGCGGCTTTGGAAAAGGGAACTTCTCCCAATTATTCAAGTCAATTGAAGACTATGAAAAGAGTTTGGAGGCTAAGCAAGCTGCAGCCGCCCAGGGCAGCTGA
modifications: SbHPPDm-F372A-F383W-02 Nucleotide Sequence
notes: vector DBN11761
Classification and statistics of the grade of pesticide damage: Grade 0 ([1]; topramezone 25 g ai/ha (1×)): 16
Classification and statistics of the grade of pesticide damage: Grade 1 ([1]; topramezone 25 g ai/ha (1×)): 0
Classification and statistics of the grade of pesticide damage: Grade 2 ([1]; topramezone 25 g ai/ha (1×)): 0
Classification and statistics of the grade of pesticide damage: Grade 3 ([1]; topramezone 25 g ai/ha (1×)): 0
Classification and statistics of the grade of pesticide damage: Grade 0 ([1]; topramezone 100 g ai/ha (4×)): 9
Classification and statistics of the grade of pesticide damage: Grade 1 ([1]; topramezone 100 g ai/ha (4×)): 7
Classification and statistics of the grade of pesticide damage: Grade 2 ([1]; topramezone 100 g ai/ha (4×)): 0
Classification and statistics of the grade of pesticide damage: Grade 3 ([1]; topramezone 100 g ai/ha (4×)): 0
Scores ([1]; topramezone 25 g ai/ha (1×)): 0
Scores ([1]; topramezone 100 g ai/ha (4×)): 15
Resistance evaluation ([1]; topramezone 25 g ai/ha (1×)): highly
Resistance evaluation ([1]; topramezone 100 g ai/ha (4×)): highly
Resistance evaluation [2, 7]: Highly
Scores (pesticide damage) [2, 7]: 8
Classification and statistics of the grade of pesticide damage: Grade 0 (number of plants) [2, 7]: 12
Classification and statistics of the grade of pesticide damage: Grade 1 (number of plants) [2, 7]: 4
Classification and statistics of the grade of pesticide damage: Grade 2 (number of plants) [2, 7]: 0
Classification and statistics of the grade of pesticide damage: Grade 3 (number of plants) [2, 7]: 0
Resistance evaluation [2, 8]: Highly
Scores (pesticide damage) [2, 8]: 13
Classification and statistics of the grade of pesticide damage: Grade 0 (number of plants) [2, 8]: 10
Classification and statistics of the grade of pesticide damage: Grade 1 (number of plants) [2, 8]: 6
Classification and statistics of the grade of pesticide damage: Grade 2 (number of plants) [2, 8]: 0
Classification and statistics of the grade of pesticide damage: Grade 3 (number of plants) [2, 8]: 0
Resistance evaluation ([3]; mesotrione 52.5 g ai/ha): Highly resistant
Scores ([3]; mesotrione 52.5 g ai/ha): 13
Grade 0 (classification and statistics of the grade of pesticide damage; number of plants) ([3]; mesotrione 52.5 g ai/ha): 10
Grade 1 (classification and statistics of the grade of pesticide damage; number of plants) ([3]; mesotrione 52.5 g ai/ha): 6
Grade 2 (classification and statistics of the grade of pesticide damage; number of plants) ([3]; mesotrione 52.5 g ai/ha): 0
Grade 3 (classification and statistics of the grade of pesticide damage; number of plants) ([3]; mesotrione 52.5 g ai/ha): 0
Resistance evaluation ([3]; mesotrione 105 g ai/ha): Poorly resistant
Scores ([3]; mesotrione 105 g ai/ha): 38
Grade 0 (classification and statistics of the grade of pesticide damage; number of plants) ([3]; mesotrione 105 g ai/ha): 0
Grade 1 (classification and statistics of the grade of pesticide damage; number of plants) ([3]; mesotrione 105 g ai/ha): 14
Grade 2 (classification and statistics of the grade of pesticide damage; number of plants) ([3]; mesotrione 105 g ai/ha): 2
Grade 3 (classification and statistics of the grade of pesticide damage; number of plants) ([3]; mesotrione 105 g ai/ha): 0
tolerance to HPPD-inhibitor herbicides (in words): topramezone (soybean T1 plants [4]): different degrees of tolerance
tolerance to HPPD-inhibitor herbicides (in words): isoxaflutole (soybean T1 plants [5]): different degrees of tolerance
tolerance to HPPD-inhibitor herbicides (in words): mesotrione (soybean T1 plants [6]): different degrees of tolerance

From patent US20250043302A1, “MUTATED HYDROXYPHENYLPYRUVATE DIOXYGENASE POLYPEPTIDE, AND CODING GENE AND USE THEREOF” (BEIJING DABEINONG BIOTECHNOLOGY CO., LTD., priority 2021, published 2025)
